For assay [1], the target named is human α-thrombin (human), P00734. Put plainly: cell-based or functional assay.
Assay [2] has the same target. Put plainly: amidolytic assay, 25° C.; from competitive inhibition at inhibitor above 20 nM (footnote c); non-competitive behaviour below 20 nM.
The target is the same in assay [3]. Description: amidolytic assay, Tos-Gly-Pro-Arg-pNA hydrolysis by human α-thrombin, 25° C.

A value given as a limit tells only on which side of the number the result lay.

Consider WDPRPQRHNDGDYEPIPEEYLQ (modifications not checked) [WD22-R-YP], for which, in assay [1], the IC50 (DCT), clotting assay, 37° C.; recombinant peptide WD22-R-YP^(d) was determined as 4.8 nM and the IC50 (DCT), clotting assay, 37° C.; synthetic peptide came out at 4.5 nM. The same molecule yielded a Ki in assay [2] of 358 nM.

Regarding WDPRPQLHNDGDFEPIPEEYLQ (modifications not checked) [WD22-L-P], the IC50 (DCT), clotting assay, 37° C. in assay [1] turned out to be 26 nM. Moreover, the Ki in assay [3] came out at 39 nM.

On to FNPRP (modifications not checked) [FN], for which the IC50 (DCT), clotting assay, 37° C. in assay [1] was over 100000 nM. In assay [3], this molecule registered a Ki of over 2000 nM.

For WDPRPQRHNDGDFEPIPEEYLQ (modifications not checked) [WD22-R-P], in assay [1], the IC50 (DCT), clotting assay, 37° C.; recombinant peptide WD22-R-P^(d) came to 8.1 nM and the IC50 (DCT), clotting assay, 37° C.; synthetic peptide is 6.7 nM. Moreover, the Ki in assay [2] came to 171 nM.

The term Ki denotes a dissociation constant, usually derived from enzyme kinetics or from competition with a known ligand.

Source of the values: US20070042946A1.
